The values below come from US20230331846A1 (INHIBRX, published 2023).

The target in assay [1] is T1, canine PD-1 (canine).
T1 construct: Expressed full length on transiently transfected 293FS cells; also called full length canine PD-1
T1 chain: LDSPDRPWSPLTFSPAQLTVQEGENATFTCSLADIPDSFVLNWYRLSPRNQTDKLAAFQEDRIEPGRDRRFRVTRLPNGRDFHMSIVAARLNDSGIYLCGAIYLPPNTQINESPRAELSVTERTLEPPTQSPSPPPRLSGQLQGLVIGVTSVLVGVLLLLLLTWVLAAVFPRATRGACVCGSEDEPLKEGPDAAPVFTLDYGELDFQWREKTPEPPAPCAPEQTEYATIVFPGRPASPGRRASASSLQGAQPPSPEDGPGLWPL
Description: flow cytometry on 293FS cells transiently expressing full length canine PD-1. The procedure: (§1) Binding of the sdAbs to canine PD-1 was determined as follows. Transiently transfected 293FS cells that express full length canine PD-1 and untransfected 293FS cells were plated at 50,000 cells/well in separate wells. Antibodies were titrated serially diluted 1:3 starting at 400 nM, and detected with anti-canine Fc 647 secondary antibody. Flow cytometric analysis was performed on an Intellicyte iQue analyzer and fluorescence was plotted as median fluorescence intensity.
A general note: In flow cytometry, cells or beads pass a laser one at a time.

Assay [2] addresses T1, canine PD-1. The experiment in a line: flow cytometry, sdAb titrated on 293FS cells expressing canine PD-1 (title: canPD1 binding), anti-canine Fc 647 secondary. As for the experimental part: as §1
In assay [3] the target is T1, canine PD-1. Description: flow cytometry blocking assay: sdAb titrated against 3 nM canine PD-L1-hFc (the blocked ligand) on 293FS cells expressing canine PD-1. As for the experimental part: (§2) Binding of canine PD-1 to PD-L1 in the presence of the sdAbs described in Example 1 was determined as follows. Each sdAb was incubated for 1 hour at room temperature in a PBS buffer, with 3 or 4 nM canine PD-L1-hFc fusion (Sino Biological) and untransfected 293FS cells or transfected 293FS cells expressing full length canine PD-1 (SEQ ID NO: 1). A fluorescent anti-Fc specific secondary antibody was used to detect […] by flow cytometry using an Intellicyte iQue analyzer. Mean fluorescence intensity was plotted for each concentration of sdAb tested.

The target of assay [4] is T1, canine PD-1. The experiment in a line: cell-based or functional assay.
The target of assay [5] is T1, canine PD-1. The experiment in a line: flow cytometry blocking assay: sdAb titrated against 4 nM canine PD-L1-hFc (the blocked ligand) on 293FS cells expressing canine PD-1. The procedure: as §2
A further assay has as its target canine CD64 (canine) (UniProt Q7YQJ5). The experiment in a line: flow cytometry, sdAb titrated on 293FS cells transfected with full length canine CD64, anti-canine Fc 647 secondary.

Substitutions are numbered along the chain they refer to. Where only a bound is given, the exact number is not on record here.

canine CD64 (canine), sequence (Q7YQJ5 entry or part of it): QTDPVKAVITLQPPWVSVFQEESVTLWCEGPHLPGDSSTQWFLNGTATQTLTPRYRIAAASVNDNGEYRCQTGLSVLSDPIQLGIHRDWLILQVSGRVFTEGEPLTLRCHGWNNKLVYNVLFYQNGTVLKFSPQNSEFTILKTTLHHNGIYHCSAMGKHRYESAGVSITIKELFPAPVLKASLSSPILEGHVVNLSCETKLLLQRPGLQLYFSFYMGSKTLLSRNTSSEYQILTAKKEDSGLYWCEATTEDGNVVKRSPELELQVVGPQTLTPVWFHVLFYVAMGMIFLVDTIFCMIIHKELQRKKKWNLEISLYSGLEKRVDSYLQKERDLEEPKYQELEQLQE

B1: PD1-13-Fc xEML-DANA (Fc fusion)
chain: QVTLKESGGGLVQAGGSLRLSCAASGRTEIIYAMGWFRQAPGKEREFVAGIGWSGGTTYYADSVEGRFTISRDSAKNTVYLQMRSLKPEDTAVYYCAAQDSVAGTLGDYWGQGTQVTVKPGGGGENGRVPRPPDCPKCPAPGGPSVFIFPPKPKDTLLIARTPEVTCVVVALDPEDPEVQISWFVDGKQMQTAKTQPREEQFAGTYRVVSVLPIGHQDWLKGKQFTCKVNNKALPSPIERTISKARGQAHQPSVYVLPPSREELSKNTVSLTCLIKDFFPPDIDVEWQSNGQQEPESKYRTTPPQLDEDGSYFLYSKLSVDKSRWQRGDTFICAVMHEALHNHYTQKSLSHSPGK
notes: Dimer formation is stated only in embodiment language
By Kd is commonly meant a measure of binding affinity in units of concentration. A lower Kd goes with a tighter complex. As usually defined, the EC50 (read off the curve) is the concentration at which the effect is half-maximal. A lower EC50 (read off the curve) goes with higher potency in that assay. Consider B1, for which, in the assay with canine PD-1 [1], the Kd was less than 10 nM. The “EC50 (read off the curve)” value with canine PD-1 [2] was approximately 2 nM. The “IC50 (read off the curve)” value in the assay with canine PD-1 [3] was approximately 2 nM.

B2: czPD1-14v2-Fc xEML-DANA (Fc fusion)
chain: EVQLVESGGGEVKPGGSLRLSCVASGRTVSIYAMGWFRQAPGKEREFVAGIGWNGGTTYYADAVKGRFTISRDNAKNTVYLQMSSLRAEDTAVYYCAAQESAAGTLGDYWGQGTQVTVKPGGGGENGRVPRPPDCPKCPAPGGPSVFIFPPKPKDTLLIARTPEVTCVVVALDPEDPEVQISWFVDGKQMQTAKTQPREEQFAGTYRVVSVLPIGHQDWLKGKQFTCKVNNKALPSPIERTISKARGQAHQPSVYVLPPSREELSKNTVSLTCLIKDFFPPDIDVEWQSNGQQEPESKYRTTPPQLDEDGSYFLYSKLSVDKSRWQRGDTFICAVMHEALHNHYTQKSLSHSPGK
notes: as for B1
As for B2, in the assay with canine PD-1 [4], the “EC50 (nM), CD4 T cells (canine PBMCs, background corrected mean fluorescence intensity)” value was 9.15 nM and the “EC50 (nM), CD8 T cells (canine PBMCs, background corrected mean fluorescence intensity)” value was determined as 27.2 nM. Binding with canine PD-1 [1] was characterised by a dissociation constant (Kd) of 6.65 nM. Besides, the “IC50 (read off the curve)” value with canine PD-1 [5] was approximately 6 nM.

B3: czPD1-14v1-Fc xEML-DANA (Fc fusion)
chain: B2 chain with N54S
Take B3: in the assay with canine PD-1 [1], the Kd is 4.15 nM. Moreover, in the assay with canine PD-1 [5], the “IC50 (read off the curve)” value is approximately 6 nM.

B4: czPD1-14v3-Fc xEML-DANA (Fc fusion)
chain: B2 chain with N74H
notes: as for B1
In the assay with canine PD-1 [1], B4 displayed a Kd of 3.24 nM. In addition, the “IC50 (read off the curve)” value in the assay with canine PD-1 [5] is approximately 6 nM.

B5: cCD19-4A8-Fc (Fc fusion, part only; not given: CD19 binding part, linker, not shown: another chain or arm of the molecule; small tags and cut ends)
Fc: ENGRVPRPPDCPPCPAPEMLGGPSVFIFPPKPKDTLLIARTPEVTCVVVDLDPEDPEVQISWFVDGKQMQTAKTQPREEQFNGTYRVVSVLPIGHQDWLKGKQFTCKVNNKALPSPIERTISKARGQAHQPSVYVLPPSREELSKNTVSLTCLIKDFFPPDIDVEWQSNGQQEPESKYRTTPPQLDEDGSYFLYSKLSVDKSRWQRGDTFICAVMHEALHNHYTQKSLSHSPGK
B5 gave an EC50 (read off the curve) in the assay with canine CD64 (canine) of 9 nM.

B6: PD1-14-Fc xEML-DANA (Fc fusion)
chain: QVQLQQSGGGLAQAGGSLRLSCAASGRTVSIYAMGWFRQAPGKEREFVAGIGWNGGTTYYADSVEGRFTISRDHAKNTAYLQMNSLKPEDTAVYYCAAQESAAGTLGDYWGRGTQVTVKPGGGGENGRVPRPPDCPKCPAPGGPSVFIFPPKPKDTLLIARTPEVTCVVVALDPEDPEVQISWFVDGKQMQTAKTQPREEQFAGTYRVVSVLPIGHQDWLKGKQFTCKVNNKALPSPIERTISKARGQAHQPSVYVLPPSREELSKNTVSLTCLIKDFFPPDIDVEWQSNGQQEPESKYRTTPPQLDEDGSYFLYSKLSVDKSRWQRGDTFICAVMHEALHNHYTQKSLSHSPGK
notes: as for B1
As for B6, in the assay with canine PD-1 [4], the “EC50 (nM), CD4 T cells (canine PBMCs, background corrected mean fluorescence intensity)” value is 1.7 nM and the “EC50 (nM), CD8 T cells (canine PBMCs, background corrected mean fluorescence intensity)” value was determined as 0.764 nM. Besides, the Kd in the assay with canine PD-1 [1] worked out at 8.82 nM. The concentration giving a half-maximal response (EC50 (read off the curve)) with canine PD-1 [2] was approximately 2 nM. For the same molecule, the “IC50 (read off the curve)” value with canine PD-1 [5] was approximately 6 nM. In addition, the “IC50 (read off the curve)” value in the assay with canine PD-1 [3] is approximately 2 nM.

B7: PD1-5-Fc xEML-DANA (Fc fusion)
chain: QVTLRESGGGLVQPGGSLRLSCAASGLTFGLYAMTWFRQAPGKDREGISCISSSDGSTIYADSVKGRFTASRDNAKDTMYLQMNNLNPEDTAVYYCATDYETRCDYGLRLRDRTAYWGPGTQVTVKPENGRVPRPPDCPKCPAPGGPSVFIFPPKPKDTLLIARTPEVTCVVVALDPEDPEVQISWFVDGKQMQTAKTQPREEQFAGTYRVVSVLPIGHQDWLKGKQFTCKVNNKALPSPIERTISKARGQAHQPSVYVLPPSREELSKNTVSLTCLIKDFFPPDIDVEWQSNGQQEPESKYRTTPPQLDEDGSYFLYSKLSVDKSRWQRGDTFICAVMHEALHNHYTQKSLSHSPGK
In the assay with canine PD-1 [1], B7 displayed a Kd of less than 10 nM. Also, the 50% effective concentration (EC50 (read off the curve)) in the assay with canine PD-1 [2] is approximately 2 nM. In addition, the “IC50 (read off the curve)” value with canine PD-1 [3] is approximately 2 nM.

B8: PD1-8-Fc xEML-DANA (Fc fusion)
chain: QVQLQQSGGGLVQAGGSLRVSCAASGRTFSSYGMGWFRQAPGKEREFVAAISWSGGTQYYADSAKGRFTISRDNAKNTVYLQMNSLKPEDTAVYYCADYTDYVVYRPQEIGYWGQGTQVTVKPENGRVPRPPDCPKCPAPGGPSVFIFPPKPKDTLLIARTPEVTCVVVALDPEDPEVQISWFVDGKQMQTAKTQPREEQFAGTYRVVSVLPIGHQDWLKGKQFTCKVNNKALPSPIERTISKARGQAHQPSVYVLPPSREELSKNTVSLTCLIKDFFPPDIDVEWQSNGQQEPESKYRTTPPQLDEDGSYFLYSKLSVDKSRWQRGDTFICAVMHEALHNHYTQKSLSHSPGK
Regarding B8, the Kd with canine PD-1 [1] was less than 10 nM. Also, the “EC50 (read off the curve)” value with canine PD-1 [2] is approximately 2 nM.
